Substitutions are numbered along the chain they refer to.
B1: Hu1A9-1 (antibody, V domains shown)
VH: QVQLVQSGAEVKKPGASVKVSCKASGYSFTDYIMLWVRQAPGQRLEWIGDIYPYYGSTSYNLKFKGKATLTVDTSASTAYMELSSLRSEDTAVYYCARQGGDGNYVLFDYWGQGTLVTVSS
VL: DIQMTQSPSSLSASVGDRVTITCKASQNVGTTVAWYQQKPGKAPKALIYSASYRYSGVPSRFSGSGSGTDFTLTISSLQPEDFATYYCQQYNSYPFTFGQGTKLEIKR
B2: Hu1A9-2 (antibody, V domains shown)
VH: B1 VH
VL: B1 VL with A46V
B3: Mouse CT.RV 7G11A3 2G11 (antibody, V domains shown)
VH: EVQLVESGGGLVKPGGSLILSCAASGFTFSGFAMSWVRQTPEKRLEWVATISSGGTYTYSPDSVMGRFTISRDNAKNTLYLQMSSLRSEDTAMYYCARRLRRNYYSMDYWGQGTSVTVSS
VL: DVVLTQAPLSLPVNIGDQASISCKSTKSLLNSDGFTYLDWYLQKPGQSPQLLIYLVSNRFSGVPDRFSGSGSGTDFTLKISRVEAEDLGIYFCFQSNYLPFTFGSGTKLEIK
B4: Mouse CT.RV 3D11E3 1A9 (antibody, V domains shown)
VH: EIQLQQTGPELVKPGASVKISCKASGYSFTDYIMLWVKQSHGKSLEWIGDIYPYYGSTSYNLKFKGKATLTVDKSSSTAYMQLNSLTSEDSAVYYCARQGGDGNYVLFDYWGQGTTLTVSS
VL: DIVMTQSQKFMSTSVGDRVSVTCKASQNVGTTVAWYQQKPGQSPKALIYSASYRYSGVPDRFTGSGSGTDFTLTISNVQSEDLAEYFCQQYNSYPFTFGSGTKLEIK

What was measured:
Test in all cases: cell-based or functional assay
[1] = target: CVS-11 rabies virus (rabies virus) (UniProt O92284)
[2] = target: Street rabies virus Deer, DRV, Jilin (rabies virus)
[3] = target: Street rabies virus Dog, BD06, Hebei (rabies virus)
[4] = target: Street rabies virus Dog, GN07, Guangdong (rabies virus)
[5] = target: Street rabies virus Dog, SC-CD09, Sichuan (rabies virus)
[6] = target: Street rabies virus Dog, ZJ-HZ09, Zhejiang (rabies virus)
[7] = target: Street rabies virus Ferret Badger, JX08-45, Jiangxi (rabies virus)
[8] = target: Street rabies virus Ferret Badger, JX09-27, Jiangxi (rabies virus)
[9] = target: Street rabies virus Ferret Badger, ZJ-LA, Zhejiang (rabies virus)
[10] = target: Street rabies virus Human, HN35, Hunan (rabies virus)
[11] = target: Street rabies virus Human, YN1, Yunnan (rabies virus)

UniProt O92284, sequence (O92284 20-524): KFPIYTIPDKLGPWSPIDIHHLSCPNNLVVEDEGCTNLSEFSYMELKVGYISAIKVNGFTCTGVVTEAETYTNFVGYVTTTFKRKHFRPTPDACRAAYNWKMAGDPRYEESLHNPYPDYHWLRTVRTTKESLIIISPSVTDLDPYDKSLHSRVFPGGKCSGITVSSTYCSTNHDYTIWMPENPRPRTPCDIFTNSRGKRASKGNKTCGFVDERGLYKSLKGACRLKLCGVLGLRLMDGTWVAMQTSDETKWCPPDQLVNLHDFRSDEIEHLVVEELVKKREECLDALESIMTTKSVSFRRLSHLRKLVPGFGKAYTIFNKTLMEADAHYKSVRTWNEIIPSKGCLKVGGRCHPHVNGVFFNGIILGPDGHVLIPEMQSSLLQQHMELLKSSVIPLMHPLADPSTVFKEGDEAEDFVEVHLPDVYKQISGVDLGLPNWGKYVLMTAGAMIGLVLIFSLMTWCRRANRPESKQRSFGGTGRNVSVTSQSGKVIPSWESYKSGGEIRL

Row | Binder | Neutralization potency (IU/mg), FAVN [1] [IU/mg] | Neutralization potency (IU/mg), RFFIT [1] [IU/mg] | mouse neutralization test (MNT): survival rate at 0.004 mg/mL antibody [1] [%] | Neutralizing Potency (IU/mg), RFFIT [1] [IU/mg] | mouse neutralization test (MNT): survivors of 8 mice at day 20 (of 8 surviving) [2] | mouse neutralization test (MNT): survivors of 8 mice at day 20 (of 8 surviving) [3] | mouse neutralization test (MNT): survivors of 8 mice at day 20 (of 8 surviving) [4] | mouse neutralization test (MNT): survivors of 8 mice at day 20 (of 8 surviving) [5] | mouse neutralization test (MNT): survivors of 8 mice at day 20 (of 8 surviving) [6] | mouse neutralization test (MNT): survivors of 8 mice at day 20 (of 8 surviving) [7] | mouse neutralization test (MNT): survivors of 8 mice at day 20 (of 8 surviving) [8] | mouse neutralization test (MNT): survivors of 8 mice at day 20 (of 8 surviving) [9] | mouse neutralization test (MNT): survivors of 8 mice at day 20 (of 8 surviving) [10] | mouse neutralization test (MNT): survivors of 8 mice at day 20 (of 8 surviving) [11]
1 | B1 | 2100 | 2290 | 100 | – | – | – | – | – | – | – | – | – | – | –
2 | B2 | 405 | 1310 | – | – | – | – | – | – | – | – | – | – | – | –
3 | B3 | 8310 | 1670 | – | 701 | 8 | 6 | 7 | 8 | 7 | 8 | 8 | 8 | 8 | 7
4 | B4 | 308 | 1260 | 50 | 3680 | 7 | 4 | 7 | 8 | 6 | 8 | 8 | 7 | 8 | 7

Reference: US20150110781A1
